Measured values as given in the DeepSol protein solubility set.

Experiment: soluble on expression in E. coli; label from the status in PepcDB or PDB records

Sequence	soluble on expression in E. coli
MGSDKIHHHHHHMTFVKKALSPDEYGEVLFQHDWMRGEPSDVVCELLAKSERLFFRQDDVLFREGDKMQHCLLVETGKLQAFRHTYGGDEKIFGQFERGEFVAIAAVFMDHGRFPMNIRALSDGHTLMIPRQDIHQFCLQRPELALRLLNYLGKKLYSTINQIDWLTSSSAPQRLADYLLRQHHIQQTQHLTLPVSRGQLATSLGMRGETLSRLMSDWKRQGHITYRGHQVELCDLNYLKELAAEARRTF	not soluble
MGSDKIHHHHHHMTGAQPVILGDMPSLSKLYVNAAATAARRRVLGTGTGISLPPCGHEVRGVVADVGNLTAFQHLVGETASDTLPAGFIHALAFPVSMSVMNRDDFPLPLLGMVHLKNKVEQHGTILFTEALDITSWAESLRGHRAGTQVDIVAEVRRSGDAKVLWKGTSTYLAKGVFLPGIDKPSVPAPPATFSAPDPTALWELGVDTGRAYAAVSGDFNPIHLSVLSAKALGLRRSIAHGMYLASRALADVGAVKGESFSWEVSFETPVFLPARVALDISSVDSPSGAWQHSDYAAWNPRSGRRHFSGSVTALQGQD	not soluble
MGSDKIHHHHHHMTHLDDMALFVEVVKAKGFRGAADALGMPNSTLSRRIGALEKAIGLRLLHRTTRKVEPTEAGLLYYERSKRIVEEARLVHEQLGEMLAQPSGLLRASFPEGFANIFLAPLVAEFARRYPGIRFEFDLSPRLADLVSDPVDVAIRMGEPANSNLIARQLARLPRHLYASPRYLDMLGEPQHPDELVQHECLRLRGSKSDIWTVQNRDETVDVAVGGRFLLNSVGMIQRLAALDMGIAILAESIVTDDVAQGRLRRVLPQWEATPVPVYALTETRLLPAKTQRFIDFLREHLSSI	not soluble
MGSDKIHHHHHHMTHQANDAVAPASGMIELSHSFDANRFLAAVDRDERATLIANLQLVHLKSGQVLCEPGEMLTAVYLPVTTAISLQYVSTGGMTLEVAQIGSESVVCDDVIGGSGRMPCRAVACRDGFVYRLDRRIFAAAFDASPVIRHLVFVCVRLLMAQVAQITFCSRHHVLKHQLCRWFLLAYDRSRSIEIQVTHSMLAQMLGVRRETVTDAAGEIQRLGLIRQYRSSIVLADLAGLEKLSCGCRAIVRDEMKRILSADSGVSAAARA	not soluble
MGSDKIHHHHHHMTHSTDITTLARWFAADFSNQQQAFDNPPLFAHIRVCMRPLPYQLLNGLSLYLEQAYDITLNQPYRVRVLKLVPSENHIEIENYIIDQEAEFYGASRDPQRLKNLKTEYIKKLPGCTFITKWTGKSFKGEVEPGKGCTVVREGKSTYLKSYFEINEHKFISHDTGYDPETDQQVWGAIAGPFEFVRWASFADEVI	not soluble
MGSDKIHHHHHHMTIQKHFPTVEMADIHFELIGGLSSQSWRIRGPGIEWLARRQSPVERKMGVDRQREFALLRQMSAVGLAPRPLLWRDGWLIVEWVPGRIATSDEFLMMLANGEVARVLSQLHRQPRSGHPLNFKILFAQHWQLMDPCRRSPALLRAHHHFQRAALPTPLALVPLHLDVHAENLLITPQGTMLIDWEYASDGDIAFELAFIVRASQMDSVAQTYFLQSYQRHRRGFSVSRLQQQMMQWFPWVDYLVLMWFEVRWQQTKNLEFLAEIPALRHRLQLG	not soluble
MGSDKIHHHHHHMTITTQSLPVVRRHTIHFLEKAKNSQAVYLSTDIDASRIQEVKRRYEQASIKISYISFLLFAISRAIEVFPEVNSSVQGRWHLKRWQFSTIDAKVTLDKLAGQERMVVSSVIPETNKKSLLAIQDEINELKIASFETSDRFQSIRKLQRLPLWIGRIIYRKILQNPITWQQTQGSFTITSLGHVPIQSFFPITTNTVCFGVGSIRECAVVREGQVVVRPMLPLSMTFDHRAIDGALASEFLYRIKQNVEEWEVEAWEDDQKNQAMM	not soluble
MGSDKIHHHHHHMTIYSPDTINFNGVNGDRYWFDEPFPYTGVGDIDERLSGFPVAVFLPHHRPRQETPLVIGLQGMCAPYGWNAFIVPTLTEMGIAVALFDPPLSGERSLVRTSTTLVQNEIKPLIDRGIPFDTALFLSIFRTTARDISKIREFCGDRYGLTDSRLALFGVSMGVLLSAYAFTANSLGDRLLGTIGHADLPSFAKSWGRPFLPDLAASPLGGLAESLLQRLQPDLAPLFQLLRLTKNLKYQDEYAWDCNPMNYIQQVDSHRRVRFLVGANDSIVKIKDARACAQKFPDGDCYVVPGMGHGTRQSGVSFVDHVRYFLATQLGDWCG	not soluble
MGSDKIHHHHHHMTKARDDRYNFGFLDENTKRMLRRSLLKAVAIPGYQVPFGSREMPLPYGWGTGGIQLTASVIGRDDVLKVIDQGADDTTNAVNIRRFFGRVAGVATTTRTADATLIQTRHRIPETPLKPGQILIFQVPEPEPLRTLEASEVETRKLHAHQEYGLMHVKLYEDIARFGHIATSYDYPVMVNDRYLASPSPIPKFDNPKLDMNPALLLFGAGREKRLYAIPPYTKVESLAFDDHPFEIQSWQQGCAICGSHDSYLDEIVIDDAGSRMFVCSDTDYCQREKQA	not soluble
MGSDKIHHHHHHMTKDDQKELGKTLWAIADQLRGSMNADDFRDYMLSFLFLRYLSDNYEAAAKKELGSDYPDAKTIGNSDKTPLSVWYASNPGDVAAFEQQMRRKAHYVIKPKYLWGNIVNLAKKQNHDLLDTLQQGFKHIEEDSFESEFQGLFSEINLASDKLGRKYDDRNAKLCSIISEIARGMALSAKTDSLGDAYEYLIGQFAAGSGKKAGEFYTPQEISNILSAIVTLDSQEPKTGPRGKLDSVFDFACGSGSLLLNIRNRMTNSGGSIGKIYGQEYNVTTYNLARMNMLLHGVKDTEFEIYHGDTLKNDWDWLRETNPAKKPRFDAVVANPPFSYRWEPGEAMAQDARFKNHGVAPKSAADFAFLLHGLQYLKDDGVMAIILPHGVLFRGGKEADIRRKLLDDGHIDTVIGLPANLFYSTGIPVCILVLKKCKKPDDVLFINAAGHFAKGKRQNQLTDEHIQRIVNTYQNRNKQDRYSRCVSMKEIADKDYNLNISRYVSTAEADKEIVLEAVHADLTAIESRLEESKKRHNAFLVELGLKPLP	not soluble
MGSDKIHHHHHHMTKHIHWDGNLSQEGFEIVKGEGGVIVCPTKVGYIIMTSDKKGLERKFEAKKRNRNKPGVVLCGSMEELRALAQLTPEIDAFYQKHWDEDILLGCILPWKAEAYEKLKAYGDGREELMTDIRGTSCFVIKFGVAGEQIAKEMWEKEGRMVYASSANPSGKGNRGKVEGIGERIESMVDLVIEADDYVASIQPDKTIETRYEQGVMVSMVDKDGKLIPQQGADSRSVEPCPVVIRKGLDIDKIMMHLSDQFNSWNYRQGEYY	not soluble
MGSDKIHHHHHHMTKHMTMKTPPIVSRQEWDAAREKMLVKEKATLRAKDALAAERRRMPWMEVDKAYVFEGPNGKASLLDLFEGRRQLIVYRAFFEPGVYGWPDHACRGCSLGADQVGHLAHLNARNTTLAYASRAPQADIVRLKARMGWEMPWYTITDSFDKDFGVDEWHGHNVFIHDGDRVFRTYLINSRGDEQMGTVWSYLDATPLGRQEIWEDSPEGYPQTPLYSWWNWHDNYEAGADKKWAEVAAAGEAAFRDKGE	not soluble
MGSDKIHHHHHHMTKHQNFIETKEYKRFAEFCDACIKYQYIGICYGQPGVGKTLSSRYYTNWNTIEKQVNHRGWEDLASKTTDDILSVNKIFYTAPAEKQTRLSNDLYSISASIDLGQKLHIVNKYGHDHSKHYSDMFKYIDLIIVDEIDRLKVQHLEQLRAIYDEHNLAMIFIGMPGIEKKLSRYPQLYSRIGFAHEFDNLSKDETHHILEYKWQDLGFDLKLEDFTDYEAITTIIKITKGNFRLIHRLFAQIDRIMDINGLDKISTEVVETARDSLVIGIR	not soluble
MGSDKIHHHHHHMTKPLINLVHANGFPAGSYKTFLQEFDNDFRTIAHNQFGHNVLYPIHNNWQHLVTELVEFIKKQDEKVICVGHSFGGVISFIAACQHPELFRGLVMLDPPVVTGAFSHLLSFIKRTPYIDKLSPAGKAKTRQNQWPENTNLVDYFSQKTLFKNFDSRCLQDYASSSVVLRNKRLELSFSPAVEADIFRHLPTNLVKYKNKLTVPAKLIYGEKTQIFPIKHFVRFAKLNDIELMTLPNGGHMFPLEQPENTANMVKQIIKDW	not soluble
MGSDKIHHHHHHMTKRILEVNVDDNGYSGVYSLIKRVIENKPADYQIDLACLEPFESQQNIDYLNKLGTQVYYIGYPGNKIKKQLKYYEKLQKVVKDGNYDYVHIHGDVANKLYVTALAARKADSGVKIILQSHASDVDGSHRQLKRFIHKSLRGKLVKLADCYVSVSDLASNWMFPSIPKSQVIKIMNGVDLAAFRYDPIIRKRIRKELGLSRKHVLGHIGRFAYQKNHQYLIQVFAKVYAQDPQARLLLVGKGDLQDECKHQVHDLGLDKQVIFYGLSSNTSELFQAMDVFLLPSHFEGLPIVGVEAQAAGLPVIFSDQITSEAKMTNNVSFLPIDETSLSAWQSQVIKDLELGHRDDYDLLSRQKLDITDTVAAFMKLYNS	not soluble
MGSDKIHHHHHHMTLLDEAVVLNDGSLMPKVGVVVGNKPADDAIKAGYRLIDCSLDQKTKLKAENPQLYVEVQVPEDVITRDDFKKIRQDIIDHHADLCLLKLSDNKEKNGQIWQELEQLKIQGWIKNIGVINISVDALNELLNHTQVRPCVAQISYEDQGLINLARENRIQVEIPVHGDINALAEIASHYGTSSVELVMRYFSQKGIVPLFEIEDVVENPRINFTINAEDLATIGQLFAQK	not soluble
MGSDKIHHHHHHMTLPIDTPAVLVDLNVAEANVRAFQSYCDRHSLKMRPHIKTHKLPQLAEYQIAQGAIGITCQKITEAEAMVAGGDMRDILITYNILGAEKVARLRALSERVALSVVADNLTVVEGLSAGFAGANKPLPVLVECNTGADRCGVETPEAALALAQAIDAAPGLKFAGLMTYPPVGGAAKVTTWLAEAKARIEATDLTVEVISSGGSPDMWQAHEMPLATEYRVGTYVYNDRSLVTRGICTWDDCALTVLATVVSTPSATRAVIDAGSKVLTSDLLGLEGYGHVLGYPDFMIDQLSEEHGRITSAQPTGLRVGDQVRIVPNHACVVANMLDHITLMRAEEVAGQETVAARGQVW	not soluble
MGSDKIHHHHHHMTMTNTPRQDSPFEKPVRVRAGFSLTFDVPYATPMIFVVQPQDRLSPTGTRQRIIDQRPLAAAEGIHTYTDTHGNLIWRTVAQPGEFTIGHDLIAEIERRPDPQLPGLRKMMVEELPDDVLQYLLPSRYVDSDLVSAEAWERFGNVQGGWAQVQAVCDYLFDTCVYGYGSNSTTTASQALGSGRAVCRDFAHMGVAFCRALNIPARYVCGYMPDIDYPPDPVPMDFHAWFEAFIDGEWRTFDARHNIPRTGRVLIAQGRDASDVAFTTSFGSAKLVNMKVWADETDFDNTLDIAPNPRIF	not soluble
MGSDKIHHHHHHMTNEQDPKQNHLLSVLPEAEWARISPHLVRIDMPLGQVIYESGDRLHHVYFPTTSIVSLLYVMEDGSSAEIAIVGNEGLIGIALFMGGETTPNRAIVQSAGEAYRLDARILKQEFHRAGPVQRLLLRYTQALITQMAQTAVCNRHHSIDQQLCRWLLLSLDRLPSNELRMTQELIANMLGVRRSGVTEAALKLQDAGLIRYSHGHIEVLDRPGLEKRVCECYNVVKQEFDRLLPDLKAL	not soluble
